Assay results reported in CN115521379A (NANJING JISHENG AOMA BIOLOGICAL PHARMACEUTICAL CO LTD, dated 2022).

Key:
[1] = molecular target: T1, PD-1蛋白 (human, UniProt Q15116 25-167, limits assumed); assay: binding ELISA on coated PD-1 protein
T1 construct: Recombinant PD-1 protein used in ELISA, SPR and BLI; also called PD-1[B]; (biotinylated)

[2] = molecular target: T1, PD-1蛋白; assay: SPR (Biacore T200), antibody captured by anti-human Fc, PD-1 injected
[3] = molecular target: T1, PD-1蛋白; assay: competition ELISA: PD-L1 coated, biotinylated PD-1 0.5 ug/mL, antibody titrated

T1 sequence (Q15116 25-167 limits assumed): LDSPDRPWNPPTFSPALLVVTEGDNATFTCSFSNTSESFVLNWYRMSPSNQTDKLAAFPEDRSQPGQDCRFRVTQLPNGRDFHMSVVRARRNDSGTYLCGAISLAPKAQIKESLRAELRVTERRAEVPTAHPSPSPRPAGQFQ

IC50 [3]	Binder	other results
0.411 µg/mL	WT-Agly-YTE (antibody, V domains shown, also called WT-Ag-YTE; WT-AGY-YTE) VH: EVQLQESGPGLVKPSETLSLTCTVSGFSLTSYAISWIRQPPGKGLEWIGVIWTGGGTNYNSALKSRVTISKDTSKNQVSLKLSSVTAADTAVYYCARDHYGTSPFVYWGQGTLVTVSS VL: DIVLTQTPLSLSVTPGQPASISCRASESVDNYGISFMNWFLQKPGQPPQLLIYAASNQGSGVPDRFSGSGSGTDFTLKISRVEAEDVGVYFCQQSKEVPWTFGGGTKVEIK	
0.543 µg/mL	3C11-Agly-YTE (antibody, V domains shown, also called 19D4-25-3C11与YTE突变、N297突变的Fc融合后得到的抗原结合蛋白) VH: EVQLQESGPGLVKPSETLSLTCTVSGFSLTSYAISWIRQPPGKGLEWIGVIWTGGGTNYNSALKSRVTISKDTSKNQVSLKLSSVTAADTAVYYCAREHYGTSPFVYWGQGTLVTVSS VL: DIVLTQTPLSLSVTPGQPASISCRASESVDNYGISFMNWFLQKPGQPPQLLIYAASNQGSGVPDRFSGSGSGTDFTLKISRVEAEDVGVYFCQQSKEVPWTFGGGTKVEIK	

Continued, binder first:

Binder	IC50 [3]	other results
hu19D4-25 (antibody, V domains shown, also called 人源化抗体hu19D4-25) VH: EVQLQESGPGLVKPSETLSLTCTVSGFSLTSYAISWIRQPPGKGLEWIGVIWTGGGTNYNSALKSRVTISKDTSKNQVSLKLSSVTAADTAVYYCARDHYGTSPFVYWGQGTLVTVSS VL: DIVLTQTPLSLSVTPGQPASISCRASESVDNYGISFMNWFLQKPGQPPQLLIYAASNQGSGVPDRFSGSGSGTDFTLKISRVEAEDVGVYFCQQSKEVPWTFGGGTKVEIK		EC50 [1]: 0.192 nM; Kd [2]: 89.5 nM; koff [2]: 0.0105 s⁻¹; kon [2]: 118000 M⁻¹ s⁻¹
1C2-3C11-W52F-Agly-YTE (antibody, V domains shown, 19D4-25-1C2-3C11 with W52F and an Fc with YTE (M252Y, S254T, T256E) and N297A; The label itself is not defined in the text) VH: EVQLQESGPGLVKPSETLSLTCTVSGFSLTSYAISWIRQPPGKGLEWIGVIFTGGGTNYNSALKSRVTISKDTSKNQVSLKLSSVTAADTAVYYCAREHYGTSPFVYWGQGTLVTVSS VL: DIVLTQTPLSLSVTPGQPASISCRASESVDNYGISFMNWFLQKPGQPPQLLIYAASNQGSGVPDRFSGSGSGTDFTLKISRVEAEDVGVYFCQQSLEVPWTFGGGTKVEIK	0.495 µg/mL	
1C2-3C11-Agly-YTE (antibody, V domains shown, also called 19D4-25-1C2-3C11与YTE突变、N297突变的Fc融合后得到的抗原结合蛋白) VH: EVQLQESGPGLVKPSETLSLTCTVSGFSLTSYAISWIRQPPGKGLEWIGVIWTGGGTNYNSALKSRVTISKDTSKNQVSLKLSSVTAADTAVYYCAREHYGTSPFVYWGQGTLVTVSS VL: DIVLTQTPLSLSVTPGQPASISCRASESVDNYGISFMNWFLQKPGQPPQLLIYAASNQGSGVPDRFSGSGSGTDFTLKISRVEAEDVGVYFCQQSLEVPWTFGGGTKVEIK	0.369 µg/mL	
1C2-Agly (antibody, V domains shown, also called 19D4-25-1C2与N297突变的Fc融合后得到的抗原结合蛋白) VH: EVQLQESGPGLVKPSETLSLTCTVSGFSLTSYAISWIRQPPGKGLEWIGVIWTGGGTNYNSALKSRVTISKDTSKNQVSLKLSSVTAADTAVYYCARDHYGTSPFVYWGQGTLVTVSS VL: DIVLTQTPLSLSVTPGQPASISCRASESVDNYGISFMNWFLQKPGQPPQLLIYAASNQGSGVPDRFSGSGSGTDFTLKISRVEAEDVGVYFCQQSLEVPWTFGGGTKVEIK	0.375 µg/mL	
1C2-Agly-YTE (antibody, V domains shown, also called 19D4-25-1C2与YTE突变、N297突变的Fc融合后得到的抗原结合蛋白) VH: EVQLQESGPGLVKPSETLSLTCTVSGFSLTSYAISWIRQPPGKGLEWIGVIWTGGGTNYNSALKSRVTISKDTSKNQVSLKLSSVTAADTAVYYCARDHYGTSPFVYWGQGTLVTVSS VL: DIVLTQTPLSLSVTPGQPASISCRASESVDNYGISFMNWFLQKPGQPPQLLIYAASNQGSGVPDRFSGSGSGTDFTLKISRVEAEDVGVYFCQQSLEVPWTFGGGTKVEIK	0.492 µg/mL	
